# Results reported in patent publication US20190106460A1 (published 2019).
# No end group written: not given here.
# B1: DEGFFE-NH2 (peptide)
# peptide: DEGFFE-NH2
# Biological target: T1, βTrCP (tag cleaved and complexed with Skp1) (UniProt Q9Y297 175-605; P63208 1-163)
# T1 construct: Protein of the fluorescence polarisation assay, 0.035 µM; also called Beta Transducin repeat-containing protein; βTrCP/Skp1
# Assay: FP competition, 10 nM fluorescein-IκB peptide on βTrCP/Skp1
# Procedure: Binding of the compounds to βTrCP was assessed using a fluorescence polarisation (FP) binding assay. The FP assay is an in vitro binding assay using a fluorescein-tagged IkB peptide at 10 nM to mimic substrate binding to βTrCP, and was performed as described above.
# T1 sequence (Q9Y297 175-605, chain 1 of 2): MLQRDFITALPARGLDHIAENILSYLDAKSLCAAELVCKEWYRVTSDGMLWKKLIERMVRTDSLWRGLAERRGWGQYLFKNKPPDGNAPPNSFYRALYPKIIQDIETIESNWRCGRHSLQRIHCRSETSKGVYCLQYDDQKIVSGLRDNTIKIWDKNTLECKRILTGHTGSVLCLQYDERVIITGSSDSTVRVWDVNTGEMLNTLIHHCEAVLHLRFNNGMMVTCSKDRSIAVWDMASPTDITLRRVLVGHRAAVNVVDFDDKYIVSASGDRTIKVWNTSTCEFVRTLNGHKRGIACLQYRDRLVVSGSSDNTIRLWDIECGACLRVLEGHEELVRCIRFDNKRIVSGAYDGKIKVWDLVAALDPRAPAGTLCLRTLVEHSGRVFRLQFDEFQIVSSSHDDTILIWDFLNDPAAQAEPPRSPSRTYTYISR
# T1 sequence (P63208 whole entry, chain 2 of 2): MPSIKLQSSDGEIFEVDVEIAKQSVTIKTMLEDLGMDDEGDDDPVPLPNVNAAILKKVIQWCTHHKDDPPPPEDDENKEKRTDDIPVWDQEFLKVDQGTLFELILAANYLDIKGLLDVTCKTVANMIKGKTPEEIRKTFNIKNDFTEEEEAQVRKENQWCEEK
binder,measurement,value
B1,IC50,43.6 µM
